A short description of this data set: protein stability index of a GFP-peptide fusion (GPS, HEK-293T) (PSI 1-6); higher = more stable.
Where [1] appears, read: treatment: DMSO, c terminus: a fixed tail appended.
The mark [2] stands for this setting: treatment: MLN4924 1 uM, 8 h, c terminus: a fixed tail appended.

± gives the standard deviation.
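Further: 24-mer peptide tiles fused after GFP, lentivirally expressed, FACS-sorted into six equal bins by GFP/DsRed ratio, decoded by Illumina sequencing, PSI is the read-weighted mean bin number.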

As to CICGFTHDDGYMICCDKCSVWQHI [KMT2E], the protein stability index came out at 3.19 ± 0.39 under setting [1] and 3.29 ± 0.41 under setting [2].

Regarding GARARGVAMLGVFLVSAVAHEYIF [SOAT2], under setting [2], the protein stability index is 3.591 ± 0.02. Take MMTLLMKKDTLTEEETQFYISETV [STK38L]: the protein stability index is, setting by setting: under setting [1], 3.16 ± 0.23; under setting [2], 3.3 ± 0.31. In turn, HVSDEDNNADLCLTDDKQVLNTQG [DLC1] showed a protein stability index under setting [1] of 5.34 ± 0.23 and a protein stability index under setting [2] of 5.46 ± 0.13. On to AVLGLLLVLAAVVAWCYYSVSLRK [MYORG], for which the protein stability index by setting is: under setting [1], 2.69 ± 0.52; under setting [2], 2.77 ± 0.78. Regarding LLREEEYVAPPRGPLPTLQVVPL [TRAF3IP2], the protein stability index reads like this: (treatment: DMSO, c terminus: native) 2.35 ± 0.3; (treatment: MLN4924 1 uM, 8 h, c terminus: native) 2.05 ± 0.33.

Consider IQVVLNGMESYQEVTVQRNCCLTL [ZER1], for which the protein stability index reads like this: under setting [1], 3.21 ± 0.47; under setting [2], 3.01 ± 0.73. Take AIYFTAYDQLKAFLCGRALTSDLY [SLC25A39]: the protein stability index stood at 3.35 ± 0.83 under setting [1] and 3.37 ± 0.57 under setting [2]. For ADWAVMDVVNYFRTVGFEEQASAF [SAMD13], the protein stability index was found to be 2.21 ± 0.3 under setting [1] and 2.59 ± 0.19 under setting [2].

With SCQSFISWTGDGWEFKLSDPDEVA [ETS1], the protein stability index is, setting by setting: under setting [1], 3.12 ± 0.13; under setting [2], 3.06 ± 0.31. In the same order, the values of PSHYDVQDRFRIELSEEGAEGRVV [MOSPD3] are 4.63 ± 0.11 and 4.79 ± 0.33. In the same order, the values of GPGSKRDAHFCAVCSDYASGYHYG [ESR2] are 2.42 ± 0.2 and 2.65 ± 0.32. On the same counts, the results for AIFDAGTLGGELGALEALELSPPL [FOXJ1] are 3.26 ± 0.23 and 3.31 ± 0.31. Consider PRLIAKVEGKGNGIKTVIVNMVDV [EIF5], for which the protein stability index was 2.34 ± 0.41 under setting [1] and 2.37 ± 0.34 under setting [2].

As for SSPVDLVTATDQKVEKMLISSIKE [IMPA1], the protein stability index was 4.38 ± 0.15 under setting [1] and 4.28 ± 0.1 under setting [2]. For GCSAVSEPASESVVGALPAEHQFS [TRAF3IP2], the protein stability index under setting [1] worked out at 4.38 ± 0.34 and the protein stability index under setting [2] is 4.6 ± 0.27. VVVESMEQDRIPEVHVPPSSAVSG [MIA2]: the protein stability index amounted to 4.45 ± 0.36 under setting [1] and 4.48 ± 0.2 under setting [2]. GIVGGFTQMIREGGARSLWRGNGI [SLC25A25]: the protein stability index reads like this: under setting [1], 2.22 ± 0.093; under setting [2], 2.27 ± 0.2. In the same order, the values of GTLNREDLSRLVNCLTGEGEDTRL [CIB1] are 4.25 ± 0.32 and 4.48 ± 0.31. On the same counts, the results for SIERSHRIATETDQIGSEIIEELG [VTI1B] are 4.88 ± 0.33 and 5 ± 0.2. On to LEVKIRDWYQRQRPSEIKDYSPYF [KRT16], for which the protein stability index reads like this: under setting [1], 2.19 ± 0.2; under setting [2], 2.24 ± 0.49. Regarding RLSNNQRYLFLDGDSHYEIEIVHI [ZFYVE21], the protein stability index by setting is: under setting [1], 3.21 ± 0.56; under setting [2], 2.21 ± 0.53. Consider VLYTDKTYAMGHLIQRKKVHVFGD [TNFSF13B], for which the protein stability index under setting [1] was 2.28 ± 0.14 and the protein stability index under setting [2] amounted to 2.51 ± 0.41. On to ERCNQLLRALKLVITALKCHKYDR [ZER1], for which the protein stability index by setting is: under setting [1], 2.56 ± 0.47; under setting [2], 2.71 ± 0.47.

In turn, CADVLFILQDQEHIFAHRIYLATS [RHOBTB1] had a protein stability index under setting [1] of 2.93 ± 0.44 and a protein stability index under setting [2] of 2.89 ± 0.48. On the same counts, the results for KPSFQSGGRRRPPASSRNRSPSGS [RBMY1A1] are 4.93 ± 0.33 and 5.35 ± 0.32. For LVDEEEKVLIQKNLGPKSKVLILR [ADD1], the protein stability index reads like this: under setting [1], 3.16 ± 0.5; under setting [2], 2.84 ± 0.25. With MEQVHRGIKGLVRDSHGKGIPNAI [CPXM2], the protein stability index worked out at 3.68 ± 0.56 under setting [1] and 4.35 ± 0.17 under setting [2]. Take SQLSVLSLSGVMLTDVSPEPLQAL [PRAME]: the protein stability index is, setting by setting: under setting [1], 2.36 ± 0.37; under setting [2], 2.4 ± 0.3.
